Data: patent publication EP4644419A1 (Hangzhou Zhongmeihuadong Pharmaceutical Co., Ltd., dated 2025)
Where “and” joins values, the source holds several entries; their conditions need not be identical. Identical values can stand only once.

T1: monkey antigen protein (monkey CD112R, Uniprot ID: A0A2K5WVV8) (monkey, UniProt A0A2K5WVV8 41-171)
T1 sequence: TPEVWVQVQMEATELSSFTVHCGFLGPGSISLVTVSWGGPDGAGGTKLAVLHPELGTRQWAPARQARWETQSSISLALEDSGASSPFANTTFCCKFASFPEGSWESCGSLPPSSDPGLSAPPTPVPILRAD

T2: human CD112R antigen protein huCD112R-His (Acro Biosysterm, PVG-H52H4) (human, UniProt Q6DKI7 41-171)
T2 construct: purchased; also called human antigen protein; not shown: His tag
T2 sequence (looked up): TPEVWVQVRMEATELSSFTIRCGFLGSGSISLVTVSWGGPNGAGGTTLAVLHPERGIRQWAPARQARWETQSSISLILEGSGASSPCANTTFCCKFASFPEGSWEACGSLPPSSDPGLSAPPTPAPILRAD

T3: human CD112R on GS-J2C/CD112R effector cells (human, UniProt Q6DKI7 1-326)
T3 sequence (looked up): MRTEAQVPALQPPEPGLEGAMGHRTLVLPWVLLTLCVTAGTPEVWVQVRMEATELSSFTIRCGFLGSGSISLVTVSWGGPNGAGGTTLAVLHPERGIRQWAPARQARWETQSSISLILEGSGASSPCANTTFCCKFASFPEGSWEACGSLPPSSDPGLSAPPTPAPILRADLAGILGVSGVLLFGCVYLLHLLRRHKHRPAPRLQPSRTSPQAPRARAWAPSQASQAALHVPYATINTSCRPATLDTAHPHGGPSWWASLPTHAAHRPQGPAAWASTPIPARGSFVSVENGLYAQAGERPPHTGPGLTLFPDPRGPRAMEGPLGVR

T4: human CD112R on antigen-specific CD8+ T cells (human, UniProt Q6DKI7 1-326)
T4 sequence (looked up): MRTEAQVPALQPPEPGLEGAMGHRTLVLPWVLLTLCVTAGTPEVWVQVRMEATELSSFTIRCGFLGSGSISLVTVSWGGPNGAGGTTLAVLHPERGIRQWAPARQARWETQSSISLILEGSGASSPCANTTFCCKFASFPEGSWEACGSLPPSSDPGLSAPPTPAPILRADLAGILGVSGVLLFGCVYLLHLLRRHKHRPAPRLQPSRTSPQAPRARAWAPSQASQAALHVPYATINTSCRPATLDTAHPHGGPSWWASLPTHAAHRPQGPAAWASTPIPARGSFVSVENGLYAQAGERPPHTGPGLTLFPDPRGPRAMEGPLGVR


What was measured:
[1] = target: T1, monkey antigen protein (monkey CD112R, …); test: ELISA, monkey antigen protein (as Example 6.1)
[2] = target: T2, human CD112R antigen protein …; test: SPR (Biacore X100), antibody captured on Protein A chip, huCD112R-His as analyte, 1:1 Langmuir
[3] = target: T3, human CD112R on GS-J2C/CD112R effector …; test: cell-based or functional assay
[4] = target: T2, human CD112R antigen protein …; test: ELISA, huCD112R-His coated on plate
[5] = target: T4, human CD112R on antigen-specific CD8+ T …; test: cell-based or functional assay

| Binder | EC50 [1] [nM] | Kd [2] | EC50 (Blocking effects of the antibodies, reporter gene method) [3] [µg/mL] | EC50 [4] [nM] | IFN-γ(pg/ml) at 0.5µg/ml antibody [5] [pg/mL] | IFN-γ(pg/ml) at 5µg/ml antibody [5] [pg/mL] | IFN-γ(pg/ml) at 50µg/ml antibody [5] [pg/mL] |
| --- | --- | --- | --- | --- | --- | --- | --- |
| anti-CD112R antibody CHA.7.518 (antibody, V domains shown, synthesised according to WO/2016/134333; also called Tab-1; Tab 1) VH: QVQLVQSGAEVKKPGASVKVSCKASGYTFTDYNINWVRQAPGQGLEWMGYIYPYIGGSGYAQKFQGRVTMTRDTSTSTVYMELSSLRSEDTAVYYCAREDKTARNAMDYWGQGTLVTVSS VL: DIQMTQSPSSLSASVGDRVTITCRVSENIYSNLAWYQQKPGKAPKLLIYEATNLAEGVPSRFSGSGSGTDFTLTISSLQPEDFATYYCQHFWGTPYTFGQGTKLEIKR | – | 0.346 nM | 0.065 | 0.034 | 696 | 718 | 763 |
| C55 (antibody, human IgG1, kappa, V domains shown) VH: EVQLQQSGPELVKPGASVKISCKASGYTFTDYYMSWVKQSHGKSLEWIGDVNPNNGDTSYNQKFKGKATLTVDKSSSTAYMELRSLTSEDSAVYYCAASGLPYVLMDYWGQGTSVTVSS VL: DIQMTQSPASLSASVGETVTITCRASENINSYLAWYQQKQGKSPQLLVYNTKTLTEDVPSRFSGSGSGTQFSLKINSLQPEDFGSYYCQHHYGTPLTFGGGTKLELKR | 1.29 | 0.506 nM and 0.334 nM | 0.052 | 0.056 | – | – | – |
| C62 (antibody, human IgG1, kappa, V domains shown) VH: EVMLVESGGGLVKPGGSLKLSCAASGFSFSSYSMSWVRQTPEKRLECVATIGGVGGNTYYPDSVKGRFSISRDNAKNTLYLQMSSLRSEDTALYYCARHEDYYYYAMDYWGQGTSVTVSS VL: QIVLTQSPAIMSASPGEKVTMTCSANSTVSYIYWYQQKPGSSPRLLIYDTSNLASGVPVRFSGSGSGTSYYLTISRMEAEDAATYYCQQWSSFPFTFGSGTKLEIKR | 0.043 | 0.704 nM and 0.571 nM | 0.032 | 0.032 | – | – | – |

Further lines, results first:

| EC50 [1] [nM] | Kd [2] | EC50 (Blocking effects of the antibodies, reporter gene method) [3] [µg/mL] | EC50 [4] [nM] | IFN-γ(pg/ml) at 0.5µg/ml antibody [5] [pg/mL] | IFN-γ(pg/ml) at 5µg/ml antibody [5] [pg/mL] | IFN-γ(pg/ml) at 50µg/ml antibody [5] [pg/mL] | Binder |
| --- | --- | --- | --- | --- | --- | --- | --- |
| 0.059 | 0.0218 nM | 0.019 | 0.065 | 624 | 658 | 767 | C13 (antibody, human IgG1, kappa, V domains shown) VH: EVQLQQSGPELVKPGASVKISCKASGYTFTDYFMNWVKQSHGKSLEWIGDINPNNGSPNYNQKFKGRATLTVDKSSSTAYMELRSLTSEDSAVYYCASGYFDVWGTGTTVTVSS VL: DIVMTQSPSSLSVSAGEKVTMSCKSSQSLLNSGTQKNYLAWYQQKPGQPPKLLIYGASTRESGVPDRFTGSGSGTDFTLTISSVQAEDLAVYYCQNDHSYPWTFGGGTKLEIKR |
| 0.116 | 0.905 nM | 0.045 | 0.075 | 543 | 641 | 755 | C1 (antibody, human IgG1, kappa, V domains shown) VH: QVHLQQSGPELVKPGASLKISCKASGYTFTDYYLNWVKQRPGQGLEWIGWIFPGSESTFYNEKFKGKATLTVDKSSSTAYMLLNSLTSEDSAVYFCTRDGGLRGPFDYWGQGTTLTVSS VL: DIQLTQSPSSLSASLGGKVTITCKASQDINKYIAWCQHKPGKGPRLLIHYTSTLHPGIPSRFSGSGSGRDYSFSISNLEPEDSATYYCLQYDYLLTFGGGTKLEIKR |
| 0.09 | 0.488 nM | 0.023 | 0.054 | – | – | – | C63 (antibody, human IgG1, kappa, V domains shown) VH: EVMLVESGGGLVKPGGSLKLSCAASGFIFSSYIMSWVRQTPEKRLEWVATIRGGGGNTYYLDSVKGRFIISRDNAKNNLYLQMSSLRSEDTALYYCARHEDYEWYAMDNWGQGTSVTVSS VL: QIVLTQSPAIMSASPGEKVTLTCSARSSVSYMYWYQQKPGSSPKLLIYDTSNLASGVPVRFSGSGSGTSYSLTISRMEAEDAATYYCQQWSSYPLTFGAGTKLELKR |
